Data: the supplement of paper PMC5998384

How the values were obtained:
[1] = test system: HeLa Kyoto; experiment: solubility change mitosis vs G1/S (difference of NP-40 vs SDS log2 ratios) (log2 ratio difference); higher = more soluble in mitosis
[2] = test system: HeLa Kyoto; experiment: melting temperature (median over replicates), in situ; higher = more thermally stable
[3] = test system: HeLa Kyoto; experiment: solubility in G1/S (NP-40 vs SDS abundance) (log2 ratio); higher = more soluble; conditions: cell cycle stage: G1/S
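Throughout, for melting temperature (median over replicates), in situ: HeLa Kyoto cells synchronized by double thymidine or nocodazole block, proteins quantified by TMT10plex mass spectrometry, three independent biological replicates.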
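Throughout, for solubility change mitosis vs G1/S (difference of NP-40 vs SDS log2 ratios): synchronized HeLa Kyoto cells (double thymidine block for G1/S, nocodazole release for mitosis), protein amounts in NP-40 versus SDS lysates quantified by mass spectrometry, three biological replicates.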
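Throughout, for solubility in G1/S (NP-40 vs SDS abundance): HeLa Kyoto cells arrested at G1/S by double thymidine block, proteins quantified by TMT10plex mass spectrometry in mild NP-40 versus SDS extracts, three biological replicates.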

Chain of PLSCR3 (chain, as listed by the source): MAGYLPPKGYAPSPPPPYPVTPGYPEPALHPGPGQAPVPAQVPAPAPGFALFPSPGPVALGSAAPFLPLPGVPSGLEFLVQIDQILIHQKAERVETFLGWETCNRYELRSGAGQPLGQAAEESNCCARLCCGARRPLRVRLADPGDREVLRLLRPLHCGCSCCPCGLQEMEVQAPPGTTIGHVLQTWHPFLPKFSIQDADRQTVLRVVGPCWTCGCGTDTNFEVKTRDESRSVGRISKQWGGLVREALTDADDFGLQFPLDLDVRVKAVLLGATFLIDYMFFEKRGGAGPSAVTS
Chain of PYM1 (chain, as listed by the source): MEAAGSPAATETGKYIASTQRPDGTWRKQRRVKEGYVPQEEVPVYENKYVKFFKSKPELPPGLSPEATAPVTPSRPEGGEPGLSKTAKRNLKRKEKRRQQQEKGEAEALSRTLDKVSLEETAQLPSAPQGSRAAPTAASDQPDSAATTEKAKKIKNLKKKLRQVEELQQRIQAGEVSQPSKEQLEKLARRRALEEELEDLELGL

Substance	solubility change mitosis (log2) [1]	melting temperature ([2]; cell cycle stage: G1/S) [°C]	melting temperature ([2]; cell cycle stage: mitosis) [°C]	solubility in G1/S (log2) [3]
MSAGGSARKSTGRSSYYYRLLRRPRLQRQRSRSRSRTRPARESPQERPGSRRSLPGSLSEKSPSMEPSAATPFRVTGFLSRRLKGSIKRTKSQPKLDRNHSFRHILPGFRSAAAAAADNERSHLMPRLKESRSHESLLSPSSAVEALDLSMEEEVVIKPVHSSILGQDYCFEVTTSSGSKCFSCRSAAERDKWMENLRRAVHPNKDNSRRVEHILKLWVIEAKDLPAKKKYLCELCLDDVLYARTTGKLKTDNVFWGEHFEFHNLPPLRTVTVHLYRETDKKKKKERNSYLGLVSLPAASVAGRQFVEKWYPVVTPNPKGGKGPGPMIRIKARYQTITILPMEMYKEFAEHITNHYLGLCAALEPILSAKTKEEMASALVHILQSTGKVKDFLTDLMMSEVDRCGDNEHLIFRENTLATKAIEEYLKLVGQKYLQDALGEFIKALYESDENCEVDPSKCSAADLPEHQGNLKMCCELAFCKIINSYCVFPRELKEVFASWRQECSSRGRPDISERLISASLFLRFLCPAIMSPSLFNLLQEYPDDRTARTLTLIAKVTQNLANFAKFGSKEEYMSFMNQFLEHEWTNMQRFLLEISNPETLSNTAGFEGYIDLGRELSSLHSLLWEAVSQLEQSIVSKLGPLPRILRDVHTALSTPGSGQLPGTNDLASTPGSGSSSISAGLQKMVIENDLSGLIDFTRLPSPTPENKDLFFVTRSSGVQPSPARSSSYSEANEPDLQMANGGKSLSMVDLQDARTLDGEAGSPAGPDVLPTDGQAAAAQLVAGWPARATPVNLAGLATVRRAGQTPTTPGTSEGAPGRPQLLAPLSFQNPVYQMAAGLPLSPRGLGDSGSEGHSSLSSHSNSEELAAAAKLGSFSTAAEELARRPGELARRQMSLTEKGGQPTVPRQNSAGPQRRIDQPPPPPPPPPPAPRGRTPPNLLSTLQYPRPSSGTLASASPDWVGPSTRLRQQSSSSKGDSPELKPRAVHKQGPSPVSPNALDRTAAWLLTMNAQLLEDEGLGPDPPHRDRLRSKDELSQAEKDLAVLQDKLRISTKKLEEYETLFKCQEETTQKLVLEYQARLEEGEERLRRQQEDKDIQMKGIISRLMSVEEELKKDHAEMQAAVDSKQKIIDAQEKRIASLDAANARLMSALTQLKERYSMQARNGISPTNPTKLQITENGEFRNSSNC [DAB2IP]	0.0598	49.5	51	0.117
MSGSLGRAAAALLRWGRGAGGGGLWGPGVRAAGSGAGGGGSAEQLDALVKKDKVVVFLKGTPEQPQCGFSNAVVQILRLHGVRDYAAYNVLDDPELRQGIKDYSNWPTIPQVYLNGEFVGGCDILLQMHQNGDLVEELKKLGIHSALLDEKKDQDSK [GLRX5]	-0.0285	53.9	53	-0.00395
SYNE2	0.607	51.1	50.3	-0.84
MTTTTTFKGVDPNSRNSSRVLRPPGGGSNFSLGFDEPTEQPVRKNKMASNIFGTPEENQASWAKSAGAKSSGGREDLESSGLQRRNSSEASSGDFLDLKGEGDIHENVDTDLPGSLGQSEEKPVPAAPVPSPVAPAPVPSRRNPPGGKSSLVLG [HN1]	0.268	52.1		-0.248
PIEZO2	-0.0931	55.7	54.8	-0.112
MAEPSVESSSPGGSATSDDHEFDPSADMLVHDFDDERTLEEEEMMEGETNFSSEIEDLAREGDMPIHELLSLYGYGSTVRLPEEDEEEEEEEEEGEDDEDADNDDNSGCSGENKEENIKDSSGQEDETQSSNDDPSQSVASQDAQEIIRPRRCKYFDTNSEVEEESEEDEDYIPSEDWKKEIMVGSMFQAEIPVGICRYKENEKVYENDDQLLWDPEYLPEDKVIIFLKDASRRTGDEKGVEAIPEGSHIKDNEQALYELVKCNFDTEEALRRLRFNVKAAREELSVWTEEECRNFEQGLKAYGKDFHLIQANKVRTRSVGECVAFYYMWKKSERYDFFAQQTRFGKKKYNLHPGVTDYMDRLLDESESAASSRAPSPPPTASNSSNSQSEKEDGTVSTANQNGVSSNGPGEILNKEEVKVEGLHINGPTGGNKKPLHADMDTNGYETDNLTTDPKLAHMTARNENDFDEKSERPAKRRRVNSNGKESPGSSEFFQEAVSHGKFEELENTDD [MIER1]	-0.0394	53.4	52.2	0.00102
MRRYLRVVVLCVACGFCSLLYAFSQLAVSLEEGTGGGGGKPQAAVASWLAGGGRGAVRGAGVAGPAAHPGVSDRCKDFSLCYWNPYWMLPSDVCGMNCFWEAAFRYSLKIQPVEKMHLAVVACGERLEETMTMLKSAIIFSIKPLQFHIFAEDQLHHSFKGRLDNWSFLQTFNYTLYPITFPSENAAEWKKLFKPCASQRLFLPLILKEVDSLLYVDTDILFLRPVDDIWSLLKKFNSTQIAAMAPEHEEPRIGWYNRFARHPYYGKTGVNSGVMLMNMTRMRRKYFKNDMTTVRLQWGDILMPLLKKYKLNITWGDQDLLNIVFFHNPESLFVFPCQWNYRPDHCIYGSNCQEAEEGGIFILHGNRGVYHDDKQPAFRAVYEALRNCSFEDDNIRSLLKPLELELQKTVHTYCGKIYKIFIKQLAKSVRDRYARSPKEK [GXYLT1]	0.0753	53.9		0.171
MAPRGRKRKAEAAVVAVAEKREKLANGGEGMEEATVVIEHCTSURVYGRNAAALSQALRLEAPELPVKVNPTKPRRGSFEVTLLRPDGSSAELWTGIKKGPPRKLKFPEPQEVVEELKKYLS [SELH]	0.17		52.2	-0.0665
PLSCR3	-0.119		56.6	0.116
MNSVRAANRRPRRVSRPRPVQQQQQQPPQQPPPQPPQQQPPQQQPPPPPQQQQQQQPPPPPPPPPPLPQERNNVGERDDDVPADMVAEESGPGAQNSPYQLRRKTLLPKRTACPTKNSMEGASTSTTENFGHRAKRARVSGKSQDLSAAPAEQYLQEKLPDEVVLKIFSYLLEQDLCRAACVCKRFSELANDPILWKRLYMEVFEYTRPMMHPEPGKFYQINPEEYEHPNPWKESFQQLYKGAHVKPGFAEHFYSNPARYKGRENMLYYDTIEDALGGVQEAHFDGLIFVHSGIYTDEWIYIESPITMIGAAPGKVADKVIIENTRDSTFVFMEGSEDAYVGYMTIRFNPDDKSAQHHNAHHCLEITVNCSPIIDHCIIRSTCTVGSAVCVSGQGACPTIKHCNISDCENVGLYITDHAQGIYEDNEISNNALAGIWVKNHGNPIIRRNHIHHGRDVGVFTFDHGMGYFESCNIHRNRIAGFEVKAYANPTVVRCEIHHGQTGGIYVHEKGRGQFIENKIYANNFAGVWITSNSDPTIRGNSIFNGNQGGVYIFGDGRGLIEGNDIYGNALAGIQIRTNSCPIVRHNKIHDGQHGGIYVHEKGQGVIEENEVYSNTLAGVWVTTGSTPVLRRNRIHSGKQVGVYFYDNGHGVLEDNDIYNHMYSGVQIRTGSNPKIRRNKIWGGQNGGILVYNSGLGCIEDNEIFDNAMAGVWIKTDSNPTLRRNKIHDGRDGGICIFNGGRGLLEENDIFRNAQAGVLISTNSHPILRKNRIFDGFAAGIEITNHATATLEGNQIFNNRFGGLFLASGVNVTMKDNKIMNNQDAIEKAVSRGQCLYKISSYTSYPMHDFYRCHTCNTTDRNAICVNCIKKCHQGHDVEFIRHDRFFCDCGAGTLSNPCTLAGEPTHDTDTLYDSAPPIESNTLQHN [FBXO11]	0.764		52.6	-1.25
MALTVDVAGPAPWGFRITGGRDFHTPIMVTKVAERGKAKDADLRPGDIIVAINGESAEGMLHAEAQSKIRQSPSPLRLQLDRSQATSPGQTNGDSSLEVLATRFQGSVRTYTESQSSLRSSYSSPTSLSPRAGSPFSPPPSSSSLTGEAAISRSFQSLACSPGLPAADRLSYSGRPGSRQAGLGRAGDSAVLVLPPSPGPRSSRPSMDSEGGSLLLDEDSEVFKMLQENREGRAAPRQSSSFRLLQEALEAEERGGTPAFLPSSLSPQSSLPASRALATPPKLHTCEKCSTSIANQAVRIQEGRYRHPGCYTCADCGLNLKMRGHFWVGDELYCEKHARQRYSAPATLSSRA [PDLIM2]	-0.043	55.6	53.8	0.17
MTKIKADPDGPEAQAEACSGERTYQELLVNQNPIAQPLASRRLTRKLYKCIKKAVKQKQIRRGVKEVQKFVNKGEKGIMVLAGDTLPIEVYCHLPVMCEDRNLPYVYIPSKTDLGAAAGSKRPTCVIMVKPHEEYQEAYDECLEEVQSLPLPL [NHP2]	1.21	55.3	54.1	-1.1
PYM1	0.791	57.1	53.9	0.42
KIAA1217	0.0131	49.8	50.7	0.0766
MQTSSSRSVHLSEWQKNYFAITSGICTGPKADAYRAQILRIQYAWANSEISQVCATKLFKKYAEKYSAIIDSDNVESGLNNYAENILTLAGSQQTDSDKWQSGLSINNVFKMSSVQKMMQAGKKFKDSLLEPALASVVIHKEATVFDLPKFSVCGSSQESDSLPNSAHDRDRTQDFPESNRLKLLQNAQPPMVTNTARTCPTFSAPVGESATAKFHVTPLFGNVKKENHSSAKENIGLNVFLSNQSCFPAACENPQRKSFYGSGTIDALSNPILNKACSKTEDNGPKEDSSLPTFKTAKEQLWVDQQKKYHQPQRASGSSYGGVKKSLGASRSRGILGKFVPPIPKQDGGEQNGGMQCKPYGAGPTEPAHPVDERLKNLEPKMIELIMNEIMDHGPPVNWEDIAGVEFAKATIKEIVVWPMLRPDIFTGLRGPPKGILLFGPPGTGKTLIGKCIASQSGATFFSISASSLTSKWVGEGEKMVRALFAVARCQQPAVIFIDEIDSLLSQRGDGEHESSRRIKTEFLVQLDGATTSSEDRILVVGATNRPQEIDEAARRRLVKRLYIPLPEASARKQIVINLMSKEQCCLSEEEIEQIVQQSDAFSGADMTQLCREASLGPIRSLQTADIATITPDQVRPIAYIDFENAFRTVRPSVSPKDLELYENWNKTFGCGK [FIGNL1]	-0.219		48.6	-0.0197
MSVAGGEIRGDTGGEDTAAPGRFSFSPEPTLEDIRRLHAEFAAERDWEQFHQPRNLLLALVGEVGELAELFQWKTDGEPGPQGWSPRERAALQEELSDVLIYLVALAARCRVDLPLAVLSKMDINRRRYPAHLARSSSRKYTELPHGAISEDQAVGPADIPCDSTGQTST [DCTPP1]	0.646	54.1	50.5	-0.0125
MESGDEAAIERHRVHLRSATLRDAVPATLHLLPCEVAVDGPAPVGRFFTPAIRQGPEGLEVSFRGRCLRGEEVAVPPGLVGYVMVTEEKKVSMGKPDPLRDSGTDDQEEEPLERDFDRFIGATANFSRFTLWGLETIPGPDAKVRGALTWPSLAAAIHAQVPED [RNASEH2C]	-0.016	50.7	50.3	0.236
MGPVRLGILLFLFLAVHEAWAGMLKEEDDDTERLPSKCEVCKLLSTELQAELSRTGRSREVLELGQVLDTGKRKRHVPYSVSETRLEEALENLCERILDYSVHAERKGSLRYAKGQSQTMATLKGLVQKGVKVDLGIPLELWDEPSVEVTYLKKQCETMLEEFEDIVGDWYFHHQEQPLQNFLCEGHVLPAAETACLQETWTGKEITDGEEKTEGEEEQEEEEEEEEEEGGDKMTKTGSHPKLDREDL [CNPY4]	0.223		54.3	0.0586
RAP1GAP	-0.474	49.2		0.239
